According to patent US20170313746:
“Also recorded” adds a separate entry of the source.

Legend:
Ac-DEVD-CHO = target: T1, Ac-DEVD-CHO
T1 chain: DEVD

[1] = target: T2, HILR-030 (cyclo-[Pro-Arg-Gly-Pro-Arg-Pro-Val-Trp-Trp-Gpa-Gpa-Trp-Trp-Gpa-Gpa-Trp-Trp])
T2 chain: PRGPRPVWWXXWWXXXW

B1: recombinant human caspase 3 enzyme (protein)
chain: SGISLDNSYKMDYPEMGLCIIINNKNFHKSTGMTSRSGTDVDAANLRETFRNLKYEVRNKNDLTREEIVELMRDVSKEDHSKRSSFVCVLLSHGEEGIIFGTNGPVDLKKITNFFRGDRCRSLTGKPKLFIIQACRGTELDCGIETDSGVDDDMACHKIPVEADFLYAYSTAPGYYSWRNSKDGSWFIQSLCAMLKQYADKLEFMHILTRVNRKVATEFESFSFDATFHAKKQIPCIVSMLTKELYFYH
Q: For B1, which “caspase-3 activity (Apo-ONE Homogeneous Caspase-3/7 assay, cleavage of Z-DEVD-R110)” value (Ac-DEVD-CHO) is on record?
A: inhibited the activity of caspase-3 in a dose-dependent manner, giving rise to IC50s within the expected range; also recorded: inhibited the caspase-3 activity in a dose-dependent fashion

Q: And the “caspase-3 activity (Apo-ONE Homogeneous Caspase-3/7 assay, cleavage of Z-DEVD-R110)” value [1]?
A: inhibited the caspase-3 activity in a dose-dependent fashion
